Test results: PMC4121237, “Engineering Neprilysin Activity and Specificity to Create a Novel Therapeutic for Alzheimer’s Disease” (PLoS ONE, 2014)

What was measured:
wild-type NEP = molecular target: T1, wild-type NEP (Homo sapiens, UniProt P08473); assay: Inhibition of Aβ1–40 cleavage activity, fluorescence polarisation; type: biochemical; settings: enzyme wild-type NEP 20 nM; Aβ1–40 substrate 10 µM
T1 construct: DNA encoding amino acids 52–749 of human NEP variants was amplified by PCR; made in house; host or cells: CHO suspension cells (transient, secreted)
Method: (§1) The effect of inhibitors on NEP activity was determined using the above fluorescence polarisation assay to measure the rate of Aβ1–40 cleavage with a substrate concentration of 10 µM, an enzyme concentration of 20 nM and inhibitor concentrations in the range 2 nM to 100 µM.

NEPv (NEP G399V/G714K) = molecular target: T2, NEPv (NEP G399V/G714K) (Homo sapiens, UniProt P08473, G400V/G715K); assay: as above; type: biochemical
T2 construct: DNA encoding amino acids 52–749 of human NEP variants was amplified by PCR; made in house; host or cells: CHO suspension cells (transient, secreted)
Method: as §1

NEP G714K = NEP G714K (Homo sapiens, UniProt P08473, G715K); assay: biochemical
Method: as §1

NEP G399V = NEP G399V (Homo sapiens, UniProt P08473, G400V); assay: biochemical
Method: as §1

Endothelin-1 = assay: Steady-state kinetics of endothelin-1 cleavage, stopped assay with RP-HPLC; type: biochemical; settings: substrate Endothelin-1 (unlabelled); RP-HPLC, 10 min at 37°C
Method: Kinetic parameters for cleavage of endothelin-1 by NEP were determined using a stopped assay in which the amount of substrate cleaved was measured using reversed-phase HPLC (RP-HPLC). Endothelin-1 was incubated at 12.5–200 µM in the presence of wild type NEP or NEPv and reactions were stopped after 10 min at 37°C by the addition of an equal volume of 1∶1∶1 water:acetonitrile:TFA containing 2 mM tris(2-carboxyethyl)phosphine (Thermo Scientific). RP-HPLC spectra were recorded using an Agilent 1260 Infinity system. Injections of 20 µL were made for each sample and analytes were separated by elution on an Agilent Polaris C8-A stationary phase column (4.6×100 mm, 3 µm) at 1.5 mL min^−1 using a linear binary gradient of 10–90% acetonitrile in water with 0.1% (v/v) TFA over 15 minutes at 40°C. Signal intensity for intact endothelin-1 was monitored at 210 nm and relative peak area was determined by manual integration of the baseline. Kinetic parameters were derived from the activity data as described above.

Aβ1–40 [1] = assay: Endpoint degradation assay with ELISA read-out; type: biochemical, human; settings: 1 hour at room temperature; Aβ40 ELISA
Method: (§2) Supplementary file pone.0104001.s001.tif: Figure S1 Degradation of Aβ1–40 and Aβ1–42 by NEP wild-type and NEPv. Measurement of the degredation of Aβ1–40 (A) and Aβ1–42 (B) was performed by incubating peptide and either wild-type NEP (▪) or NEPv (Δ) for 1 hour at room temperature. The reaction was stopped by the addition of 1.10-phenanthroline to a final concentration of 10 µM. 50 µl (Aβ40 analysis) or 100 µl (Aβ42 analysis) of the reaction mix was transferred to an ELISA plate. Aβ40 and Aβ42 concentrations after degradation were determined using Invitrogen human Aβ40 ELISA kit (Invitrogen, California, US), and Innotest β-amyloid RUO (1–42) ELISA (Innogenetics, Gent, Belgium). […] (TIF) Click here for additional data file.

ANP = assay: Steady-state kinetics of peptide cleavage, fluorescence polarisation; type: biochemical; settings: substrate ANP; 37°C, pH 7.4
Method: (§3) For detailed kinetic characterisation of peptide cleavage by NEP, a similar assay to that above was used with modifications based on a published method. Peptides were synthesised by Bachem using 9-fluorenylmethyloxycarbonyl solid-phase peptide synthesis and were labelled with a N-terminal 5(6)FAM via a ε-aminocaproic acid linker and a C-terminal biotin via a lysine linker (Table S1). Purified peptides were supplied as trifluoroacetate salts with a purity ≥95%. The assay was performed in a 96-well microtitre plate and contained 50 mM HEPES (pH 7.4), 100 mM NaCl, 0.05% (w/v) BSA (Buffer A), 1–200 µM peptide substrate and 1–500 nM NEP protein. Reactions were incubated at 37°C before being stopped at various time points between 2 and 360 min by transferring 5 µL aliquots to 245 µL Buffer A containing 2 mM 1,10-phenanethroline (Sigma) and 2 µM avidin (Invitrogen). For peptide substrates containing disulphide bonds, 1 mM tris(2-carboxyethyl)phosphine (Thermo Scientific) was added to the stop solution. The fluorescence polarisation of the resulting solution was measured on a Victor plate reader and the amount of substrate cleaved was determined with reference to substrate-only controls with and without avidin. Initial rates were obtained by linear regression of the linear regions of time courses. Enzyme velocity was plotted as a function of substrate concentration and the Michaelis-Menten equation was used to fit the data, giving the parameters kcat and KM.

Somatostatin 14 = assay: as above; type: biochemical; settings: substrate Somatostatin 14; 37°C, pH 7.4
Method: as §3

γ-endorphin = assay: as above; type: biochemical; settings: substrate γ-endorphin; 37°C, pH 7.4
Method: as §3

Angiotensin = assay: as above; type: biochemical; settings: substrate Angiotensin; 37°C, pH 7.4
Method: as §3

Glucagon = assay: as above; type: biochemical; settings: substrate Glucagon; 37°C, pH 7.4
Method: as §3

α-endorphin = assay: as above; type: biochemical; settings: substrate α-endorphin; 37°C, pH 7.4
Method: as §3

Neurokinin A = assay: as above; type: biochemical; settings: substrate Neurokinin A; 37°C, pH 7.4
Method: as §3

Arg-vasopressin = assay: as above; type: biochemical; settings: substrate Arg-vasopressin; 37°C, pH 7.4
Method: as §3

Substance P = assay: as above; type: biochemical; settings: substrate Substance P; 37°C, pH 7.4
Method: as §3

Nociceptin = assay: as above; type: biochemical; settings: substrate Nociceptin; 37°C, pH 7.4
Method: as §3

GLP-1 = assay: as above; type: biochemical; settings: substrate GLP-1; 37°C, pH 7.4
Method: as §3

Neurokinin B = assay: as above; type: biochemical; settings: substrate Neurokinin B; 37°C, pH 7.4
Method: as §3

Bradykinin = assay: as above; type: biochemical; settings: substrate Bradykinin; 37°C, pH 7.4
Method: as §3

Neurotensin = assay: as above; type: biochemical; settings: substrate Neurotensin; 37°C, pH 7.4
Method: as §3

GRP = assay: as above; type: biochemical; settings: substrate GRP; 37°C, pH 7.4
Method: as §3

Aβ1–40 [2] = assay: as above; type: biochemical; settings: substrate Aβ 1–40; 37°C, pH 7.4
Method: as §3

Aβ1–42 = molecular target: T3, Aβ1–42 (Homo sapiens, UniProt P05067); assay: Endpoint degradation assay with ELISA read-out; type: biochemical; settings: 1 hour at room temperature; Aβ42 ELISA
T3 construct: Aβ 1-42^a
Method: as §2

T2 sequence (P08473 53-750 G400V/G715K): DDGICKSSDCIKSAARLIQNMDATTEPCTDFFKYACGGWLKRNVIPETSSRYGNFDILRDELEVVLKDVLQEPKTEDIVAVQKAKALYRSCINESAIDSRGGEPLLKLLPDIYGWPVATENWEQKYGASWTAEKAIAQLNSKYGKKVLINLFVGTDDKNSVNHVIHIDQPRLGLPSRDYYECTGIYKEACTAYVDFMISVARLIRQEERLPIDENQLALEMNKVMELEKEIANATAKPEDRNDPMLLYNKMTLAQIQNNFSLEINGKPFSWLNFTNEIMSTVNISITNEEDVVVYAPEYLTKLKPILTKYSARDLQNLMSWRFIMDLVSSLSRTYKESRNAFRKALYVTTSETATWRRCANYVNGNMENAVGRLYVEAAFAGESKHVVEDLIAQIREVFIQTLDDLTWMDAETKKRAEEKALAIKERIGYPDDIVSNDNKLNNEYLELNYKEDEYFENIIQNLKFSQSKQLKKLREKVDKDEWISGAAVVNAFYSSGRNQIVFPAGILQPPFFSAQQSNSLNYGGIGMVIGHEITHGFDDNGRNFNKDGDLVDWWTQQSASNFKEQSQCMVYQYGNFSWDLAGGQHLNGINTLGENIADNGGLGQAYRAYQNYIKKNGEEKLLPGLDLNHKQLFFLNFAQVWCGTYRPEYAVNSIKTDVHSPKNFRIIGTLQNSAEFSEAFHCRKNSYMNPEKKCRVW
T1 sequence (P08473 53-750): as the sequence (P08473 53-750 G400V/G715K) above, with V348G, K663G counted along it
Chain of NEP G714K (P08473 53-750 G715K): as the sequence (P08473 53-750 G400V/G715K) above, with V348G counted along it
T3 sequence (P05067 672-713): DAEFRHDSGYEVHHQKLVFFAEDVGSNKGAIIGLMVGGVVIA
Chain of NEP G399V (P08473 53-750 G400V): as the sequence (P08473 53-750 G400V/G715K) above, with K663G counted along it

Molecule: CC(C)C[C@H](NP(=O)(O)O[C@@H]1O[C@@H](C)[C@H](O)[C@@H](O)[C@H]1O)C(=O)N[C@@H](Cc1c[nH]c2ccccc12)C(=O)O [Phosphoramidon, phosphoramidon]
- IC50 (wild-type NEP): < 10 nM
- potency lower on NEPv than for wild-type NEP (NEPv (NEP G399V/G714K); NEPv versus wild-type NEP): > 2000 fold
- IC50 (NEPv (NEP G399V/G714K); enzyme NEPv 20 nM, Aβ1–40 substrate 10 µM): 21000 nM
- IC50 (NEP G714K): 100 nM
- IC50 (NEP G399V): 610 nM

B1: wild-type NEP: soluble extracellular domain (amino acids 52–749) of wild type human NEP (neprilysin), tagged, recombinantly expressed (protein, UniProt P08473 52-749, looked up, fragment)
chain: YDDGICKSSDCIKSAARLIQNMDATTEPCTDFFKYACGGWLKRNVIPETSSRYGNFDILRDELEVVLKDVLQEPKTEDIVAVQKAKALYRSCINESAIDSRGGEPLLKLLPDIYGWPVATENWEQKYGASWTAEKAIAQLNSKYGKKVLINLFVGTDDKNSVNHVIHIDQPRLGLPSRDYYECTGIYKEACTAYVDFMISVARLIRQEERLPIDENQLALEMNKVMELEKEIANATAKPEDRNDPMLLYNKMTLAQIQNNFSLEINGKPFSWLNFTNEIMSTVNISITNEEDVVVYAPEYLTKLKPILTKYSARDLQNLMSWRFIMDLVSSLSRTYKESRNAFRKALYGTTSETATWRRCANYVNGNMENAVGRLYVEAAFAGESKHVVEDLIAQIREVFIQTLDDLTWMDAETKKRAEEKALAIKERIGYPDDIVSNDNKLNNEYLELNYKEDEYFENIIQNLKFSQSKQLKKLREKVDKDEWISGAAVVNAFYSSGRNQIVFPAGILQPPFFSAQQSNSLNYGGIGMVIGHEITHGFDDNGRNFNKDGDLVDWWTQQSASNFKEQSQCMVYQYGNFSWDLAGGQHLNGINTLGENIADNGGLGQAYRAYQNYIKKNGEEKLLPGLDLNHKQLFFLNFAQVWCGTYRPEYAVNSIKTDVHSPGNFRIIGTLQNSAEFSEAFHCRKNSYMNPEKKCRV
modifications: extracellular domain tag
notes: soluble extracellular domain (amino acids 52–749) of wild type human NEP (neprilysin), tagged, recombinantly expressed
- Km (Endothelin-1): 53 ± 10 µM
- kcat (Endothelin-1): 0.68 ± 0.06 s⁻¹
- EC50 (Aβ1–40 [1]): 243 nM
- Km (ANP): 8.4 ± 0.8 µM
- kcat (ANP): 7.1 ± 0.2 s⁻¹
- Km (Somatostatin 14): 7.4 ± 0.9 µM
- kcat (Somatostatin 14): 32 ± 1 s⁻¹
- Km (γ-endorphin): 13 ± 1 µM
- kcat (γ-endorphin): 4.8 ± 0.2 s⁻¹
- Km (Angiotensin): 8.6 ± 0.9 µM
- kcat (Angiotensin): 8.2 ± 0.3 s⁻¹
- Km (Glucagon): 25 ± 5 µM
- kcat (Glucagon): 4.5 ± 0.4 s⁻¹
- Km (α-endorphin): 24 ± 0.5 µM
- kcat (α-endorphin): 8.9 ± 0.08 s⁻¹
- Km (Neurokinin A): 9.3 ± 1 µM
- kcat (Neurokinin A): 17 ± 0.7 s⁻¹
- Km (Arg-vasopressin): 6.2 ± 1 µM
- kcat (Arg-vasopressin): 2.8 ± 0.2 s⁻¹
- Km (Substance P): 16 ± 1 µM
- kcat (Substance P): 18 ± 0.6 s⁻¹
- Km (Nociceptin): 20 ± 1 µM
- kcat (Nociceptin): 11 ± 0.3 s⁻¹
- Km (GLP-1): 24 ± 4 µM
- kcat (GLP-1): 3.3 ± 0.3 s⁻¹
- Km (Neurokinin B): 22 ± 2 µM
- kcat (Neurokinin B): 20 ± 0.8 s⁻¹
- Km (Bradykinin): 32 ± 5 µM
- kcat (Bradykinin): 16 ± 1 s⁻¹
- Km (Neurotensin): 16 ± 2 µM
- kcat (Neurotensin): 13 ± 0.6 s⁻¹
- Km (GRP): 150 ± 30 µM
- kcat (GRP): 26 ± 4 s⁻¹
- Km (Aβ1–40 [2]): 104 ± 20 µM
- kcat (Aβ1–40 [2]): 0.83 ± 0.1 s⁻¹
- EC50 (Aβ1–42): 144 nM
